B1: GFOD1 (parent)
chain: EEAEELAKEMSVPFYTSRIDEVLL
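Also: lentivirally expressed fusions sorted by FACS into six bins by GFP to DsRed ratio, PSI derived from sequencing read proportions per bin multiplied by bin number.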

Variants of B1 are the subject of this data set. Nature of the data set: protein stability index of a GFP-peptide fusion (GPS, HEK-293T) (PSI 1-6); higher = more stable. The following applies: c terminus: a fixed tail appended.
As for EEAEERAKEMSVPFYTSRIDEVLL [L6R], the protein stability index was 4.2.

EEAEESAKEMSVPFYTSRIDEVLL [L6S]: the protein stability index is 4.19.

For the variant EEAEETAKEMSVPFYTSRIDEVLL [L6T], the protein stability index was 4.46.

With EEAEEWAKEMSVPFYTSRIDEVLL [L6W], the protein stability index is 3.75.

On to EEAEEVAKEMSVPFYTSRIDEVLL [L6V], for which the protein stability index is 3.94.

As to EEAEEYAKEMSVPFYTSRIDEVLL [L6Y], the protein stability index came to 3.95.

With EEAEELAKEMSVCFYTSRIDEVLL [P13C], the protein stability index worked out at 3.27.

Regarding EEAEELAKEMSVTFYTSRIDEVLL [P13T], the protein stability index came out at 4.03.

Regarding EEAEELAKEMSVSFYTSRIDEVLL [P13S], the protein stability index was determined as 3.47.

As to EEAEELAKEMSVHFYTSRIDEVLL [P13H], the protein stability index is 2.54.

Regarding EEAEELAKEMSVLFYTSRIDEVLL [P13L], the protein stability index was 2.57.

For EEAEELAKEMSVGFYTSRIDEVLL [P13G], the protein stability index came to 4.02.

In the case of EEAEELAKEMSVNFYTSRIDEVLL [P13N], the protein stability index came out at 3.78.

On to EEAEELAKEMSVMFYTSRIDEVLL [P13M], for which the protein stability index worked out at 3.32.

With EEAEELAKEMSVIFYTSRIDEVLL [P13I], the protein stability index came to 2.03.

Take EEAEELAKEMSVRFYTSRIDEVLL [P13R]: the protein stability index was found to be 4.11.

On to EEAEELAKEMSVKFYTSRIDEVLL [P13K], for which the protein stability index turned out to be 3.19.

Regarding EEAEELAKEMSVQFYTSRIDEVLL [P13Q], the protein stability index stood at 3.47.

Regarding EEAEELAKEMSVDFYTSRIDEVLL [P13D], the protein stability index stood at 3.96.

For EEAEELAKEMSVWFYTSRIDEVLL [P13W], the protein stability index turned out to be 1.97.

As to EEAEELAKEMSVEFYTSRIDEVLL [P13E], the protein stability index stood at 3.97.

For the variant EEAEELAKEMSVVFYTSRIDEVLL [P13V], the protein stability index is 2.74.

As for EEAEELAKSMSVPFYTSRIDEVLL [E9S], the protein stability index turned out to be 2.92.

Consider EEAEELAKIMSVPFYTSRIDEVLL [E9I], for which the protein stability index worked out at 2.15.

Take EEAEELAKVMSVPFYTSRIDEVLL [E9V]: the protein stability index came out at 3.1.

Take EEAEELAKHMSVPFYTSRIDEVLL [E9H]: the protein stability index is 3.2.

As to EEAEELAKRMSVPFYTSRIDEVLL [E9R], the protein stability index is 2.7.

Regarding EEAEELAKPMSVPFYTSRIDEVLL [E9P], the protein stability index came to 3.01.

In the case of EEAEELAKYMSVPFYTSRIDEVLL [E9Y], the protein stability index was 2.94.

Take EEAEELAKDMSVPFYTSRIDEVLL [E9D]: the protein stability index was determined as 3.93.

Regarding EEAEELAKQMSVPFYTSRIDEVLL [E9Q], the protein stability index was determined as 3.17.

In the case of EEAEELAKWMSVPFYTSRIDEVLL [E9W], the protein stability index came out at 2.62.

Take EEAEELAKLMSVPFYTSRIDEVLL [E9L]: the protein stability index is 2.16.

Consider EEAEELAKKMSVPFYTSRIDEVLL [E9K], for which the protein stability index stood at 2.66.

Take EEAEELAKNMSVPFYTSRIDEVLL [E9N]: the protein stability index worked out at 3.71.

As to EEAEELAKCMSVPFYTSRIDEVLL [E9C], the protein stability index is 2.55.

Regarding EEAEELAKFMSVPFYTSRIDEVLL [E9F], the protein stability index came out at 3.12.

In the case of EEAEELAKMMSVPFYTSRIDEVLL [E9M], the protein stability index stood at 3.03.

For the variant EEAEELAKEMSVPFYDSRIDEVLL [T16D], the protein stability index was found to be 4.33.

EEAEELAKEMSVPFYPSRIDEVLL [T16P]: the protein stability index was 3.65.

Consider EEAEELAKEMSVPFYGSRIDEVLL [T16G], for which the protein stability index amounted to 3.78.

In the case of EEAEELAKEMSVPFYLSRIDEVLL [T16L], the protein stability index is 2.75.

As for EEAEELAKEMSVPFYSSRIDEVLL [T16S], the protein stability index amounted to 3.27.

Turning to EEAEELAKEMSVPFYISRIDEVLL [T16I], the protein stability index was 3.08.

For the variant EEAEELAKEMSVPFYFSRIDEVLL [T16F], the protein stability index was 2.33.

As for EEAEELAKEMSVPFYQSRIDEVLL [T16Q], the protein stability index came out at 4.17.

For the variant EEAEELAKEMSVPFYYSRIDEVLL [T16Y], the protein stability index stood at 2.27.

Consider EEAEELAKEMSVPFYMSRIDEVLL [T16M], for which the protein stability index was found to be 3.03.

As to EEAEELAKEMSVPFYNSRIDEVLL [T16N], the protein stability index was 4.17.

Regarding EEAEELAKEMSVPFYASRIDEVLL [T16A], the protein stability index stood at 4.

For the variant EEAEELAKEMSVPFYRSRIDEVLL [T16R], the protein stability index came to 3.27.

On to EEAEELAKEMSVPFYVSRIDEVLL [T16V], for which the protein stability index amounted to 3.45.

Take EEAEELAKEMSVPFYWSRIDEVLL [T16W]: the protein stability index was determined as 2.32.

In the case of EEAEELAKEMSVPFYCSRIDEVLL [T16C], the protein stability index was determined as 3.81.

With EEAEELAKEMSVPFYHSRIDEVLL [T16H], the protein stability index is 3.93.

As to EEAEELAKEMSVPFYKSRIDEVLL [T16K], the protein stability index worked out at 3.7.

Regarding EEAEELAKEMSVPWYTSRIDEVLL [F14W], the protein stability index stood at 3.66.

For the variant EEAEELAKEMSVPTYTSRIDEVLL [F14T], the protein stability index is 4.51.

In the case of EEAEELAKEMSVPIYTSRIDEVLL [F14I], the protein stability index was 4.05.

For the variant EEAEELAKEMSVPLYTSRIDEVLL [F14L], the protein stability index is 3.79.

As to EEAEELAKEMSVPHYTSRIDEVLL [F14H], the protein stability index amounted to 4.2.

On to EEAEELAKEMSVPSYTSRIDEVLL [F14S], for which the protein stability index is 4.37.

EEAEELAKEMSVPQYTSRIDEVLL [F14Q]: the protein stability index came to 5.

EEAEELAKEMSVPAYTSRIDEVLL [F14A]: the protein stability index turned out to be 4.46.

For EEAEELAKEMSVPVYTSRIDEVLL [F14V], the protein stability index amounted to 3.86.

As for EEAEELAKEMSVPEYTSRIDEVLL [F14E], the protein stability index is 4.4.

Take EEAEELAKEMSVPKYTSRIDEVLL [F14K]: the protein stability index came to 4.2.

Take EEAEELAKEMSVPGYTSRIDEVLL [F14G]: the protein stability index worked out at 3.4.

For the variant EEAEELAKEMSVPPYTSRIDEVLL [F14P], the protein stability index came out at 4.85.

On to EEAEELAKEMSVPNYTSRIDEVLL [F14N], for which the protein stability index worked out at 4.68.

In the case of EEAEELAKEMSVPMYTSRIDEVLL [F14M], the protein stability index was determined as 3.83.

As for EEAEELAKEMSVPRYTSRIDEVLL [F14R], the protein stability index was found to be 4.22.

In the case of EEAEELAKEMSVPDYTSRIDEVLL [F14D], the protein stability index was found to be 4.9.

Consider EEAEELAKEMSVPFYTIRIDEVLL [S17I], for which the protein stability index turned out to be 2.38.

On to EEAEELAKEMSVPFYTCRIDEVLL [S17C], for which the protein stability index was 2.52.

In the case of EEAEELAKEMSVPFYTKRIDEVLL [S17K], the protein stability index is 3.87.

For EEAEELAKEMSVPFYTDRIDEVLL [S17D], the protein stability index is 4.98.

Take EEAEELAKEMSVPFYTARIDEVLL [S17A]: the protein stability index amounted to 3.09.

As to EEAEELAKEMSVPFYTFRIDEVLL [S17F], the protein stability index was determined as 1.79.

For EEAEELAKEMSVPFYTHRIDEVLL [S17H], the protein stability index was 3.71.

EEAEELAKEMSVPFYTERIDEVLL [S17E]: the protein stability index was determined as 4.27.

For EEAEELAKEMSVPFYTLRIDEVLL [S17L], the protein stability index was 2.09.

Take EEAEELMKEMSVPFYTSRIDEVLL [A7M]: the protein stability index is 3.14.

For the variant EEAEELVKEMSVPFYTSRIDEVLL [A7V], the protein stability index was determined as 4.01.

EEAEELQKEMSVPFYTSRIDEVLL [A7Q]: the protein stability index stood at 4.06.

For the variant EEAEELNKEMSVPFYTSRIDEVLL [A7N], the protein stability index turned out to be 4.02.

As to EEAEELEKEMSVPFYTSRIDEVLL [A7E], the protein stability index was 3.87.

For EEAEELCKEMSVPFYTSRIDEVLL [A7C], the protein stability index came out at 4.06.

As for EEAEELWKEMSVPFYTSRIDEVLL [A7W], the protein stability index amounted to 2.39.

As to EEAEELRKEMSVPFYTSRIDEVLL [A7R], the protein stability index worked out at 3.62.

As to EEAEELGKEMSVPFYTSRIDEVLL [A7G], the protein stability index turned out to be 4.

In the case of EEAEELFKEMSVPFYTSRIDEVLL [A7F], the protein stability index was determined as 2.99.

Take EEAEELLKEMSVPFYTSRIDEVLL [A7L]: the protein stability index stood at 2.93.

EEAEELHKEMSVPFYTSRIDEVLL [A7H]: the protein stability index was determined as 4.2.

The values are drawn from the supplement of paper PMC10567573.
